Measurements: publication PMC3855604
Where two headings read alike, the source gives them in different places. Values belong to the substance of their own block, whether it stands above or below them.

Tests used:
[1] = biological target: S119C (NBD S119C) PAI-1 (human) (UniProt P05121); assay: stopped-flow fluorimetry
[2] = biological target: complex of NBD S119C PAI-1 with S195A tcuPA (UniProt P05121); assay: stopped-flow fluorimetry
[3] = biological target: S119C (NBD S119C) PAI-1 (human) (UniProt P05121); assay: stopped-flow fluorimetry; remark: listed apart in the source
[4] = biological target: non-glycosylated Q123K PAI-1 (human) (UniProt P05121)
[5] = biological target: wild type recombinant non-glycosylated PAI-1 (human) (UniProt P05121)
[6] = biological target: wild type glycosylated PAI-1 (human) (UniProt P05121)
[7] = biological target: non-glycosylated Q123K PAI-1 (human) (UniProt P05121); assay: competition read by tPA amidolytic activity
[8] = biological target: M447C (NBD P1′) PAI-1 (human); assay: stopped-flow fluorimetry
[9] = biological target: complex of wt rPAI-1 with Vn (UniProt P05121)
[10] = biological target: non-glycosylated Q123K PAI-1 (human) (UniProt P05121); assay: competition read by tPA amidolytic activity; remark: listed apart in the source
[11] = biological target: wild type glycosylated PAI-1 (human) (UniProt P05121); assay: competition read by tPA amidolytic activity
[12] = system: M447C (NBD P1′) PAI-1; assay: stopped-flow fluorimetry; details: other: stopped-flow fluorimetry

kon [1]: 7.5e+06 M⁻¹ s⁻¹ | kon [2]: 1.33e+07 M⁻¹ s⁻¹ | koff [3]: 0.0022 to 0.0072 s⁻¹ | kon [3]: 7.2e+06 M⁻¹ s⁻¹ | kL2 (spontaneous inactivation of Q123K PAI-1 with Vn), 37°C [4]: 0.00018 s⁻¹ | kL2 (spontaneous inactivation of Q123K PAI-1 with Vn), 50°C [4]: 0.0081 s⁻¹ | kL2 (spontaneous inactivation of Q123K PAI-1 with Vn), 55°C [4]: 0.0109 s⁻¹ | kL2 (spontaneous inactivation of Q123K PAI-1 with Vn), 60°C [4]: 0.0222 s⁻¹ | kL2 (spontaneous inactivation of PAI-1 with Vn), 60°C [5]: 0.011 s⁻¹ | kL2 (spontaneous inactivation of PAI-1 with Vn), 37°C [6]: 3.6e-05 s⁻¹ | kL2 (spontaneous inactivation of PAI-1 with Vn), 50°C [6]: 0.00043 s⁻¹ | kL2 (spontaneous inactivation of PAI-1 with Vn), 55°C [6]: 0.001 s⁻¹ | kL2 (spontaneous inactivation of PAI-1 with Vn), 60°C [6]: 0.0049 s⁻¹
Substance: Monomeric vitronectin (natural protein)

Kd [7]: 1.3 nM | Kd [8]: 24.6 nM | koff [8]: 0.15 s⁻¹ | kon [8]: 6.1e+06 M⁻¹ s⁻¹ | kL3 (spontaneous inactivation of Q123K PAI-1 with S195A tcuPA), 37°C [4]: 5e-05 s⁻¹ | kL3 (spontaneous inactivation of Q123K PAI-1 with S195A tcuPA), 50°C [4]: 0.00066 s⁻¹ | kL3 (spontaneous inactivation of Q123K PAI-1 with S195A tcuPA), 60°C [4]: 0.00122 s⁻¹ | kL4 (spontaneous inactivation of PAI-1 with Vn and S195A tcuPA), 37°C [9]: 3.4e-06 s⁻¹ | kL4 (spontaneous inactivation of PAI-1 with Vn and S195A tcuPA), 50°C [9]: 0.00011 s⁻¹ | kL4 (spontaneous inactivation of PAI-1 with Vn and S195A tcuPA), 55°C [9]: 0.00012 s⁻¹ | kL4 (spontaneous inactivation of PAI-1 with Vn and S195A tcuPA), 60°C [9]: 0.00042 s⁻¹ | kL3 (spontaneous inactivation of PAI-1 with S195A tcuPA), 50°C [6]: 0.00024 s⁻¹ | kL3 (spontaneous inactivation of PAI-1 with S195A tcuPA), 60°C [6]: 0.0025 s⁻¹ | Kd [10]: 1.3 nM | Kd [11]: 1.2 nM
Substance: S195A two chain urokinase (S356A; S195A in chymotrypsin numbering) (enzyme)

Substance: recombinant two chain urokinase
KM [12]: 10.2 ± 2.2 µM

kon [8]: 2.68e+07 M⁻¹ s⁻¹
Substance: recombinant two chain urokinase (enzyme)
